Patent CN117567617A

Target: CLDN18.2 (species not stated)
Assay: affinity measurement, method not described

Kd: 4.17 nM
Substance: IMAB362 (Zolbetuximab), positive control antibody
